The record followed here is patent EP4566619A1 (AvenCell Therapeutics Inc., dated 2025).

Assay [1] addresses T1, CD19 (UniProt P15391 20-556).
T1 construct: whole, on cells; also called CD19 on OCI-AML3-CD19 cells; Oci-AML-CD19
T1 sequence (looked up): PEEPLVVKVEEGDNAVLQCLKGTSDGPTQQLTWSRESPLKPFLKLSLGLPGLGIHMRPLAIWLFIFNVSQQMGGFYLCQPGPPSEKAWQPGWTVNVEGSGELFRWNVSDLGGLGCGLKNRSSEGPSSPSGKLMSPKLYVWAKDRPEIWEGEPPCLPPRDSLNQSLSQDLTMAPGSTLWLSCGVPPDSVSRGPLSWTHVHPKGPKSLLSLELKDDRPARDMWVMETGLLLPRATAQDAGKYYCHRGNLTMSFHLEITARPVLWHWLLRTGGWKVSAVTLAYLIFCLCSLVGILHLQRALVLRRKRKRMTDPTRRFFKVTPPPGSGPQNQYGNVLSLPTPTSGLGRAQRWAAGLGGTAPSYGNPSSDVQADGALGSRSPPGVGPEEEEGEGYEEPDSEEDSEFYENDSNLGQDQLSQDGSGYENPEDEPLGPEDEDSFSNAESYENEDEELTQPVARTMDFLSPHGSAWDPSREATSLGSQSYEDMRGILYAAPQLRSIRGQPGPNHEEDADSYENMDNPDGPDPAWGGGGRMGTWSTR
As to the kind of experiment: cellular binding assay, flow cytometry (gMFI) on OCI-AML3-CD19 cells.

For assay [2], the target named is T2, CD20 (UniProt P11836 1-297).
T2 construct: whole, on cells; also called CD20 on OCI-AML3-CD20 cells; Oci-AML-CD20
T2 sequence (looked up): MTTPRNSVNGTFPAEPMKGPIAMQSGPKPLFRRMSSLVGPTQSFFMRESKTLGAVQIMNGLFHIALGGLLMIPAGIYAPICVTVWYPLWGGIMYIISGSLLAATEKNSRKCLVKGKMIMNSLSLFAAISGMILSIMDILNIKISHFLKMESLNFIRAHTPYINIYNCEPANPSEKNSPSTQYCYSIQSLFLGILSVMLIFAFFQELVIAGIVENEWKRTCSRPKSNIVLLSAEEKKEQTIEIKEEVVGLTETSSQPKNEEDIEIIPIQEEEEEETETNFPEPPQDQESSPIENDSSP
Kind of assay: cellular binding assay, flow cytometry (gMFI) on OCI-AML3-CD20 cells.

Assay [3] concerns the target T1, CD19. As to the kind of experiment: cell-based or functional assay.
The target of assay [4] is T2, CD20. As to the kind of experiment: cell-based or functional assay.

B1: R-TM-19/20_2 (other)
chain 1: not shown
chain 2: GQVQLVQSGAEVKKPGASVKVSCKASGYTFTHYYIYWVRQAPGQGLEWMGGVNPSNGGTHFNEKFKSRVTMTRDTSISTAYMELSRLRSDDTAVYYCARSEYDYGLGFAYWGQGTLVTVSSASTKGPSVFPLAPSSKSTSGGTAALGCLVKDYFPEPVTVSWNSGALTSGVHTFPAVLQSSGLYSLSSVVTVPSSSLGTQTYICNVNHKPSNTKVDKKVEPKSCDKTHTCPPCPAPPVAGPSVFLFPPKPKDTLMISRTPEVTCVVVDVSHEDPEVKFNWYVDGVEVHNAKTKPREEQYNSTYRVVSVLTVLHQDWLNGKEYKCKVSNKGLPSSIEKTISKAKGQPREPQVYTLPPSRDELTKNQVSLWCLVKGFYPSDIAVEWESNGQPENNYKTTPPVLDSDGSFFLYSKLTVDKSRWQQGNVFSCSVMHEALHNHYTQKSLSLSPGK
chain 3: GQVQLVESGGGLVQPGGSLRLSCAASGRTFSNYNMGWFRQAPGQGLEFVAAIDWSGGSPYYADSVKGRFTISRDNSKNTLYLQMNSLRAEDTAVYYCAAPLSYGSTWLADYWGQGTLVTVSSEPKSCDKTHTCPPCPAPPVAGPSVFLFPPKPKDTLMISRTPEVTCVVVDVSHEDPEVKFNWYVDGVEVHNAKTKPREEQYNSTYRVVSVLTVLHQDWLNGKEYKCKVSNKGLPSSIEKTISKAKGQPREPQVYTLPPSRDELTKNQVSLSCAVKGFYPSDIAVEWESNGQPENNYKTTPPVLDSDGSFFLVSKLTVDKSRWQQGNVFSCSVMHEALHNHYTQKSLSLSPGK
notes: also called R-TM 19/20_02
For the molecule B1, the 50% effective concentration (EC50) with CD19 [1] is 18.4 nM; in the assay with CD20 [2], 43.6 nM. The “CD19 killing EC50 [pM]” value with CD19 [3] stood at 3.8 pM. For the same molecule, the “CD20 killing EC50 [pM]” value with CD20 [4] was found to be 7.2 pM.

B2: R-TM-19/20_11 (other)
chain 1: not shown
chain 2: GQVQLVQSGAEVKKPGASVKVSCKASGYTFTHYYIYWVRQAPGQGLEWMGGVNPSNGGTHFNEKFKSRVTMTRDTSISTAYMELSRLRSDDTAVYYCARSEYDYGLGFAYWGQGTLVTVSSASTKGPSVFPLAPSSKSTSGGTAALGCLVKDYFPEPVTVSWNSGALTSGVHTFPAVLQSSGLYSLSSVVTVPSSSLGTQTYICNVNHKPSNTKVDKKVEPKSCDKTHTCPPCPAPPVAGPSVFLFPPKPKDTLMISRTPEVTCVVVDVSHEDPEVKFNWYVDGVEVHNAKTKPREEQYNSTYRVVSVLTVLHQDWLNGKEYKCKVSNKGLPSSIEKTISKAKGQPREPQVYTLPPSRDELTKNQVSLWCLVKGFYPSDIAVEWESNGQPENNYKTTPPVLDSDGSFFLYSKLTVDKSRWQQGNVFSCSVMHEALHNHYTQKSLSLSPGK
chain 3: EVQLVESGGGLVQPGGSLRLSCAASGFSFSDFWMSWVRQAPGKGLEWVATISQAGSEKDYVDSVKGRFTISRDNAKKSLYLQMNSLRAEDTAVYYCASGVYSFDYRGQGTLVTVSSEPKSCDKTHTCPPCPAPPVAGPSVFLFPPKPKDTLMISRTPEVTCVVVDVSHEDPEVKFNWYVDGVEVHNAKTKPREEQYNSTYRVVSVLTVLHQDWLNGKEYKCKVSNKGLPSSIEKTISKAKGQPREPQVYTLPPSRDELTKNQVSLSCAVKGFYPSDIAVEWESNGQPENNYKTTPPVLDSDGSFFLVSKLTVDKSRWQQGNVFSCSVMHEALHNHYTQKSLSLSPGKGGGGSGGGGSGGGGSQVQLVESGGGLVQPGGSLRLSCAASGRTFSNYNMGWFRQAPGQGLEFVAAIDWSGGSPYYADSVKGRFTISRDNSKNTLYLQMNSLRAEDTAVYYCAAPLSYGSTWLADYWGQGTLVTVSS
notes: Three-chain CD19/CD20 targeting module
Regarding B2, the figures for the EC50 in the assay with CD19 [1] and with CD20 [2] were 5.2 nM and 62 nM, respectively. Also, the “CD19 killing EC50 [pM]” value with CD19 [3] amounted to 3.8 pM. Besides, in the assay with CD20 [4], the “CD20 killing EC50 [pM]” value is 17.9 pM.

B3: R-TM-19/20_8 (other)
chain 1: not shown
chain 2: GQVQLVQSGAEVKKPGASVKVSCKASGYTFTHYYIYWVRQAPGQGLEWMGGVNPSNGGTHFNEKFKSRVTMTRDTSISTAYMELSRLRSDDTAVYYCARSEYDYGLGFAYWGQGTLVTVSSASTKGPSVFPLAPSSKSTSGGTAALGCLVKDYFPEPVTVSWNSGALTSGVHTFPAVLQSSGLYSLSSVVTVPSSSLGTQTYICNVNHKPSNTKVDKKVEPKSCDKTHTCPPCPAPPVAGPSVFLFPPKPKDTLMISRTPEVTCVVVDVSHEDPEVKFNWYVDGVEVHNAKTKPREEQYNSTYRVVSVLTVLHQDWLNGKEYKCKVSNKGLPSSIEKTISKAKGQPREPQVYTLPPSRDELTKNQVSLWCLVKGFYPSDIAVEWESNGQPENNYKTTPPVLDSDGSFFLYSKLTVDKSRWQQGNVFSCSVMHEALHNHYTQKSLSLSPGK
chain 3: GQVQLVESGGGLVQPGGSLRLSCAASGRTFSNYNMGWFRQAPGQGLEFVAAIDWSGGSPYYADSVKGRFTISRDNSKNTLYLQMNSLRAEDTAVYYCAAPLSYGSTWLADYWGQGTLVTVSSGGGGSGGGGSGGGGSEVQLVESGGGLVQPGGSLRLSCAASGFSFSDFWMSWVRQAPGKGLEWVATISQAGSEKDYVDSVKGRFTISRDNAKKSLYLQMNSLRAEDTAVYYCASGVYSFDYRGQGTLVTVSSEPKSCDKTHTCPPCPAPPVAGPSVFLFPPKPKDTLMISRTPEVTCVVVDVSHEDPEVKFNWYVDGVEVHNAKTKPREEQYNSTYRVVSVLTVLHQDWLNGKEYKCKVSNKGLPSSIEKTISKAKGQPREPQVYTLPPSRDELTKNQVSLSCAVKGFYPSDIAVEWESNGQPENNYKTTPPVLDSDGSFFLVSKLTVDKSRWQQGNVFSCSVMHEALHNHYTQKSLSLSPGK
notes: Three-chain CD19/CD20 targeting module; also called R-TM 19/20_08
Regarding B3, the EC50 with CD19 [1] came to 14.8 nM; in the assay with CD20 [2], 37 nM. For the same molecule, the “CD19 killing EC50 [pM]” value in the assay with CD19 [3] turned out to be 7.1 pM. In addition, the “CD20 killing EC50 [pM]” value with CD20 [4] was 14.2 pM.

B4: R-TM-19/20_15 (other)
chain 1: not shown
chain 2: GQVQLVQSGAEVKKPGASVKVSCKASGYTFTHYYIYWVRQAPGQGLEWMGGVNPSNGGTHFNEKFKSRVTMTRDTSISTAYMELSRLRSDDTAVYYCARSEYDYGLGFAYWGQGTLVTVSSASTKGPSVFPLAPSSKSTSGGTAALGCLVKDYFPEPVTVSWNSGALTSGVHTFPAVLQSSGLYSLSSVVTVPSSSLGTQTYICNVNHKPSNTKVDKKVEPKSCDKTHTCPPCPAPPVAGPSVFLFPPKPKDTLMISRTPEVTCVVVDVSHEDPEVKFNWYVDGVEVHNAKTKPREEQYNSTYRVVSVLTVLHQDWLNGKEYKCKVSNKGLPSSIEKTISKAKGQPREPQVYTLPPSRDELTKNQVSLWCLVKGFYPSDIAVEWESNGQPENNYKTTPPVLDSDGSFFLYSKLTVDKSRWQQGNVFSCSVMHEALHNHYTQKSLSLSPGK
chain 3: GQVQLVESGGGLVQPGGSLRLSCAASGRTFSNYNMGWFRQAPGQGLEFVAAIDWSGGSPYYADSVKGRFTISRDNSKNTLYLQMNSLRAEDTAVYYCAAPLSYGSTWLADYWGQGTLVTVSSGGGGSGGGGSQVQLVESGGGLVQPGGSLRLSCAASGRTFSNYNMGWFRQAPGQGLEFVAAIDWSGGSPYYADSVKGRFTISRDNSKNTLYLQMNSLRAEDTAVYYCAAPLSYGSTWLADYWGQGTLVTVSSEPKSCDKTHTCPPCPAPPVAGPSVFLFPPKPKDTLMISRTPEVTCVVVDVSHEDPEVKFNWYVDGVEVHNAKTKPREEQYNSTYRVVSVLTVLHQDWLNGKEYKCKVSNKGLPSSIEKTISKAKGQPREPQVYTLPPSRDELTKNQVSLSCAVKGFYPSDIAVEWESNGQPENNYKTTPPVLDSDGSFFLVSKLTVDKSRWQQGNVFSCSVMHEALHNHYTQKSLSLSPGK
notes: as for B2
In the case of B4, the EC50 with CD19 [1] turned out to be 3.7 nM; with CD20 [2] it was 45.5 nM. For the same molecule, in the assay with CD19 [3], the “CD19 killing EC50 [pM]” value amounted to 1.2 pM. In addition, in the assay with CD20 [4], the “CD20 killing EC50 [pM]” value stood at 10.7 pM.

B5: R-TM-19/20_3 (other)
chain 1: not shown
chain 2: GQVQLVQSGAEVKKPGASVKVSCKASGYTFTHYYIYWVRQAPGQGLEWMGGVNPSNGGTHFNEKFKSRVTMTRDTSISTAYMELSRLRSDDTAVYYCARSEYDYGLGFAYWGQGTLVTVSSASTKGPSVFPLAPSSKSTSGGTAALGCLVKDYFPEPVTVSWNSGALTSGVHTFPAVLQSSGLYSLSSVVTVPSSSLGTQTYICNVNHKPSNTKVDKKVEPKSCDKTHTCPPCPAPPVAGPSVFLFPPKPKDTLMISRTPEVTCVVVDVSHEDPEVKFNWYVDGVEVHNAKTKPREEQYNSTYRVVSVLTVLHQDWLNGKEYKCKVSNKGLPSSIEKTISKAKGQPREPQVYTLPPSRDELTKNQVSLWCLVKGFYPSDIAVEWESNGQPENNYKTTPPVLDSDGSFFLYSKLTVDKSRWQQGNVFSCSVMHEALHNHYTQKSLSLSPGK
chain 3: GQVQLVESGGGLVQPGGSLRLSCAASGRTFSNYNMGWFRQAPGQGLEFVAAIDWSGGSPYYAASVRGRFTISRDNSKNTLYLQMNSLRAEDTAVYYCAAPLSYGSTWLADYWGQGTLVTVSSEPKSCDKTHTCPPCPAPPVAGPSVFLFPPKPKDTLMISRTPEVTCVVVDVSHEDPEVKFNWYVDGVEVHNAKTKPREEQYNSTYRVVSVLTVLHQDWLNGKEYKCKVSNKGLPSSIEKTISKAKGQPREPQVYTLPPSRDELTKNQVSLSCAVKGFYPSDIAVEWESNGQPENNYKTTPPVLDSDGSFFLVSKLTVDKSRWQQGNVFSCSVMHEALHNHYTQKSLSLSPGK
notes: Three-chain CD19/CD20 targeting module; also called R-TM 19/20_03
As for B5, the EC50 with CD19 [1] was found to be 19 nM; with CD20 [2], 29.2 nM. Further, the “CD19 killing EC50 [pM]” value with CD19 [3] turned out to be 7.9 pM. For the same molecule, the “CD20 killing EC50 [pM]” value with CD20 [4] amounted to 4.3 pM.
